Target: SARS-CoV-2 main protease M^pro-C145A (SARS-CoV-2)
Assay: cryo-EM structure

“SARS-CoV-2 main protease M^pro-C145A (enzyme)” was tested, and the stoichiometry N was 2.
